Measured values: US10300024B2, “Proteinoid compounds, process of preparing same and uses thereof” (Bar-Ilan University, priority 2015, dated 2019)

Columns and labels:
[1] = Photostability under xenon lamp illumination; format: physicochemical; conditions: continuous illumination, 20 min
Protocol: An aqueous solution of ICG ([…]) in PBS was prepared, and the fluorescence intensity with λex set at 780 nm and λem set at 800 nm was measured. A dispersion of NIR fluorescent P(EF-PLLA) nanoparticles in PBS was prepared, and diluted to give a similar fluorescence intensity to the dye at the same wavelengths. The excitation and emission slits were opened to 20 nm and 5 nm, respectively. Each of the samples was illuminated continuously with a xenon lamp, and the fluorescence intensity was measured over a period of 20 min by a Cary Eclipse fluorescence spectrophotometer (Agilent Technologies Inc.). Intensity values were normalized for comparison.

[2] = cited from earlier work
[3] = test system: HCT116 human colon cancer cells; assay: XTT cell viability, HCT116; format: cell-based
Protocol: HCT116 human colon cancer cells were treated with 0.01 mg/mL NPs, hollow or containing 1.66 μg Dox, non-conjugated and conjugated to 35 ng TRAIL. Free Dox, free TRAIL and PBS served as control groups. Absorption was measured for all samples, each in six, with TECAN spectrophotometer to determine the cell viability. […] It was chosen to continue with the TRAIL-PEG-Dox NPs, as PEGylation modifies the physical and chemical properties of the drug, and can decrease immunogenicity and improve drug solubility.

CC1(C)C(/C=C/C=C/C=C/C=C2\N(CCCCS(=O)(=O)O)c3ccc4ccccc4c3C2(C)C)=[N+](CCCCS(=O)(=O)[O-])c2ccc3ccccc3c21 [free ICG, indocyanine green]
fluorescence intensity during illumination [1]: decreased significantly

N[C@@H](Cc1c[nH]cn1)C(=O)O [histidine]
pKa of α-amine group [2]: 9.33

B1: PEG-TRAIL NPs: hollow NPs (without Dox) conjugated to TRAIL via PEG (conjugate, UniProt P50591 1-281, looked up)
Tumor necrosis factor ligand …: MAMMEVQGGPSLGQTCVLIVIFTVLLQSLCVAVTYVYFTNELKQMQDKYSKSGIACFLKEDDSYWDPNDEESMNSPCWQVKWQLRQLVRKMILRTSEETISTVQEKQQNISPLVRERGPQRVAAHITGTRGRSNTLSSPNSKNEKALGRKINSWESSRSGHSFLSNLHLRNGELVIHEKGFYYIYSQTYFRFQEEIKENTKNDKQMVQYIYKYTSYPDPILLMKSARNSCWSKDAEYGLYSIYQGGIFELKENDRIFVSVTNEHLIDMDHEASFFGAFLVG
modifications: PEG-linked to hollow nanoparticles
toxic effect ([3]; 0.01 mg/mL NPs, 24 h and 72 h): did not have a toxic effect

B2: free TRAIL: TNF-related apoptosis-inducing ligand (protein, UniProt P50591 1-281, looked up)
Tumor necrosis factor ligand …: MAMMEVQGGPSLGQTCVLIVIFTVLLQSLCVAVTYVYFTNELKQMQDKYSKSGIACFLKEDDSYWDPNDEESMNSPCWQVKWQLRQLVRKMILRTSEETISTVQEKQQNISPLVRERGPQRVAAHITGTRGRSNTLSSPNSKNEKALGRKINSWESSRSGHSFLSNLHLRNGELVIHEKGFYYIYSQTYFRFQEEIKENTKNDKQMVQYIYKYTSYPDPILLMKSARNSCWSKDAEYGLYSIYQGGIFELKENDRIFVSVTNEHLIDMDHEASFFGAFLVG
cell viability course ([3]; after 72 h): recovery in the cell viability | toxicity ([3]; over 24 h): good toxicity
